Our source for the protease stability score values is the NTF2 design screens of Basanta et al. (2020).

The nature of the data set: protease stability score; higher = more stable; yeast display proteolysis, trypsin and chymotrypsin.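 Further: relative to predicted unfolded state with 0 unfolded-like and 1 meaning tenfold more protease.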
The sequence “SEEDEDAMRSAEFLVKKLNTGDEDWYQHLFDPHTKLEIGNFTSHGMHVSLKQWREMGADHVHVQDIDVFDGRVHVRTHIHVNGQTVEVLIILVKVNGRWIVERIRMK” registered a protease stability score of 0.66. The value for “DETKEDTNRWIEHELRALKTGNWKEQFKNLDPNVRMHLHVGDKNKDLHGREKVTTELRRLFEEFGIKHIHLTNFEVQGDKIHLIMHIEVDGRHIELHLIVTKIDGKWHMESIEMHFR” was 0.866. The value for “DEDEEDMRHALELIYRTFETGDERTTEELMDPHARIDIGEFKLHGREEAVEFYRLLLRKVKNLTIKIHHVEVYGEKITIDGRIDFDGRKRRVIILVEKVDGKWVINEIRVH” was 1.42. “TEDMEVMRRILELFIELVTTGDWEILRELLDPNVRIEIGDKQLHGRELVSNSLLLLGVDHIRVKDMKIQGEKLHIETENEINGVKLNTHILLLKINGRWLIKDLSVK” registered a protease stability score of 1.29. The value for “SDKEEEAHRLLELLIHWYRTGDFETWRQLMDPHVRNVVDVNGRELHHHGREEVTDSLRFFWEHLGIKHVHFRHVEVQGDKIKLHGQQRVDGQEHQSDFIFIIVDGRVKFIFIHLR” was 0.649; that for “RKEEDEARKFLHTYIELMRTGDEDNLKEFVDPHVRLEVGDKRVVGWDRYVENVVELIEKVPNLRIHIDSVRAIGNWLHVDGTLIQGDKHREIHLHLQKIDGRWILTHQHVR” was 1.34; that for “SEDEKNVEEMSRRLSHVLKTGDEESFSRLADPNARHIYNGRILHGWENFVRFLRHLWEHARIHELHVHDFEYQGDFMHVDSRLNGDINGQQMIFTTHLYNIKINGRWFLTEVKIV” was 0.429. Consider “SDEEIAAKYMEDELQKSLKTGDEQKFRHLADPNVRSDINGVELIGWELIIKYWREIRSKVEDVRLKRVDVQGDKIHLHGLVDVEINVNGVRTREHLESHFVIVKIDGRWYVHSIEIR”, for which the protease stability score amounted to 0.659.

“DEERKIAEKFAELYQHWEHTGNEDEMRSFFDPNYRLFVGEKEFVGRKTRSRWHREYIEKLGVDHVEIQDYRVQGNFVESDLVLRFNGREVKTEIRINVIDGRIKEVHIITH” gave a protease stability score of 0.198.

“DEHEELLRRLADEWFKSLLTGDEDRLLELADPNMRIRLLINGRDEKIHGWEELVRWFREIRFRSMDIDSFTLVNGKIQIRFKYRGRVNGQTHETRSEFLLIVIDGKVTHVEVRLE” came in with a protease stability score of 2.46.

The sequence “SEDHRHAMEFIHHMVRAIHTGDEQILTEYLDPHVRIENENETLHGWEHRTEWMKRFDHIDRHIIVRHVEIQGNKVKVDAELRFRLHQGDFVEENEIRLRIIILKVDGRWVLHKVRFI” gave a protease stability score of 1.35. The value for “DDLEEEVEHFFELFWDDLLTGDEHSLTRQLDPHARFEYGDKVWHGREVYRQFMTQADHRHVEIKHTRVVNGRVEMNIEVRLHINGRRIESTVHIISTKINGQWRLESQHVE” was -0.081; that for “DEDSKHVEHLMRLLIRLLITGDEDTLLNLIDPHARIDINGKEVHGREWAEKFIRRFERDLGVKHNHIEHIELQGDKAHVDFSLRIGDKMIQVHIDIWIVDGKLQSIRIKIK” was 1.54. The value for “SSHEEYMIRLVLQIIRLYLTGDEETIRKMADPNTYMKITIGDKDIEAHGREDVIRVREEIRKQIRIHHVDVTSIKVIDGRLVIHGILDGEYDGKRDEVDVRIEIIIVNGKWTSEHARVH” was 1.05; that for “SEEEENAHKAMRFLEEVMKTGDEKSWLDLFDPDARIIIGDKHHIGWEHIHELMRRIDHIHDFHVHDVRSQGDKVFVDIKIDGIINGRRYRTRIEVIVRKFDGKWHIDHIQHN” was 1.2; that for “HESDKLVDEIFKTFIHAIVTGDEETLKTMLDPNTKFILIYGDKYHEHHGWRDLIRWLREIRIREIIHRHVENQGDKVHHEGELRGEFNGKEIRTEIHIHMVVVNGKLRRMEWEIK” was 2.07. The value for “SEEDEIAEKILRLYLELFKTGDWRRFEELLDPNVRLEFNGRFYHGREEISRIMKEFHNKFKNVRIELTSFEVQGEKNIMRSSENINGVERETEIYLDIWNGRIQSLIIRVR” was 2.25; that for “SETEEAATLMLRMLIETIYTGDEETYKRLADPHVKVRIGDKTFHGREQVIERLHRTWKEMRIEDVEVQDMRYQGDFIRNRTHILLHQGEYRHRFDVEIIVFKFNGQWILTSQHFH” was 1.11. In turn, “TEEDEEVEWVLKVLKETNDTGDEHTFRKLMDPRTKFHINGKDYIGMEAWREQVEKLGFKHIHDIKIEDMRVYNGRIQLHGRVDMVQGDKKIDMHVILIAVKVNGRWLLRFDIVE” had a protease stability score of 1.38. In turn, “TEEDEHLYEYLESLFHHQRTGDEDKYERLLDPHARLDINGVDVIGMERVVHQWHEHWRRYKNMRIHFRHYEIKVFNGRAHLRIEGHMEYGDKKSEVELLFIAIKINGRWVVKQVHITVH” returned a protease stability score of 1.82. The value for “SEEKKQSDEAWELYIKSVETGDFRMLHELLDPNVKIHIGDKDIHGREYIMEHMLKFGVTTQSRFEVKDIKLQGDFVIIHGHIRSIFHFNGRTLRVEHDVEIFATKFDGRWWTHSVEVN” was 1.18. The value for “DEHEHAFRIIAEMLVEAMKTGNEETFSRLFDPNVRITWNGRHNHGRENYVEFIRQIRVDDLHIVLEDVRVIDGVIEVHGKMRIHGIVNGRRDEFIWESRVVIVKIDGRWHIESIRFD” was 1.09; that for “DELTEEVRKFLERLWRATHTGNEKEFWELVDPNVRDDINGRILHGRETVIRIITELGFKVRHNEFRDERVVGEYATVHGNFNVDINGKEHEVDVEIIVEKVNGVWTLKYRHFR” was 1.54.

On to “SELEEESHKFFREFYRVIETGDEDRLEELADPHVRNDFNGVLIHGREEMRKMREKVHKQLGVTRVEVTVRDMKIQGDKAISHGVFHIGEKDFIVTLISEKINGRWILHSIEVR”, for which the protease stability score was found to be 1.2.

For the sequence “SEEEEWIIKVLRELTKSMETGDEDHLHHLADPDVRLHVGDKEFHGREDFKKWYTHLRIKHFELTDMRIQGEKAHLKVRVHMRYGDKEDRKEVDFTMIKIDGRWYLHSVHVR”, the protease stability score stood at 2.09. The value for “SEDHEISRRMLEMVLDSFDTGDEHIYKDLADPHAKIEVNGKDIHGWDTWASEMVERTERVPGVRKEIHIRDIKSQGDKIEIRGEVIIDFNGKTIRYRVLFVIEKINGRWFIKSEHIK” was 1.04; that for “SESEEASEWVIKIWRDTMETGDEKTLNHLLDPSVRLVVNGQEIHGRESMIKEFRRFKNVKLHDIKHHDIDMIGDKIIIHGTIHGEINGREVTVEQEIISIKVNGKWLTRSLILH” was 1.64. “NEEEEHIFELWELFLKASHTGDEDSLKEFADPNTRQIVDGQEIHGREKFTEHLSWRAKELRLESVHIRRLHIIDGRIHVDGLIRGRINGREIEIETEVISIKVNGKWILKEMNFK” had a protease stability score of 1.28. Regarding “DELKEILLRIIEKMLHALLTGNFEELLKNVDPRTRNDINGVDAVGRENIKRVWEEILRRIDHWEEVRIEDFRVQGDKVHIDGRLIMRVDGRREDTTTHLHIIVFNGRVESIKFEIR”, the protease stability score was 1.57.

“SEEKKHVEEVARHILHLFLTGDEELWSNMADPNMRYLWNGREIVGRDLVREQNKELRTHSIEITHIEVFDGRARVRVNVDYQIGDKRINTHSLVIIVIINGRIESVFIKHD” had a protease stability score of 1.27. In turn, “DEDRKYVEELMRKIWEAMHTGDEKFFNNLADPHYRLRIGDKNFIGRDEFHKFLRHIRMTVEDFQERDSDEIDGVIIIIGETTYIFIVNGQEKHHVVEVEIIIIKIDGRWLLHSVNIH” had a protease stability score of 1.27. “DEVKKFLDELLEILRKYSETGDEDSYTEMFDPNTRLLFEGRKFVGREEAIKFLRRVDVFSIKNFTMRHVETQGDWLHIDGEVLLLIIFNGKTFELKTKITFIMLKIDGRWILHAEEIR” gave a protease stability score of 1.71. The value for “RDEEEEARRMMEIFLEDVRTGDEDSLKELADPNVKSEINGVELVGREEVLKTLREILRELGVSNVEVRLHRIHVYDGRAHIDGRLNVNGRELEMHVDMEKVDGRWRIRRIELR” was 2.27; that for “DEDHEELHHWSRLTLESIKTGNEDELHKFADPNVRFKVNGKDIHGMESFVRFMLEFIDRYPNLVLEEKHFHVVNGRMIQIIRVRVGDKTSEIFLIAHKVDGRWHLEHMEIR” was 1.08. Next, “HEEEEEIKEATRLFEEIHRTGDERESREMIDPNALFEVGNFKDHGWDSIHVLMRRVKNVKITLDDFKIQGDKVHLHITENFNGKRVHVTIIAVKINGVWFVHKIRYD”: 1.44; “DEVEELIEENRRFFEESWMTGDEDSLRKNADPNVRLKVGEFHLIGREAFETWARQAVHMDSIEIHHMHFFDGVVHSITHFDGKFNGRKERHSIYLVELKVNGRWLNHEIRLK”: 0.511; “DETHKDAERALEIEIRDFVTGDFKSMQRLADPNVKIEVGDKHWHGREEFEKLVKEVIDQFPNMRLDVRVTHWELQGEKLIMRTEVNEHFDGVTFKHETHIIIRKINGRWFLTSVHIQ”: 1.36.

“SEEEEIARKIADIFFKVMQTGDEDHWLELFDPHTRFESDFNGRTVEIHGRERVREWKRKLEEDLGLTRFEIILRDSHVVNGVIHMDIEVRINGKTRRWIIDLIVINGRVKSLRVEIR” had a protease stability score of 1.15. Turning to “DEEKEETEKLAKDILHNIHTGNEEEFLKLADPNTRIVQGDFRTHGRESMHFWMREVRKLFKNVRIHWRLKDVRSFEGHAITHIEVEVSFDGRTDLIRMEIHVIVVNGKIEELIINTR”, the protease stability score was determined as 0.695. The value for “DEDKKITDRAFEIFIHNLYTGNEEDLHELADPNVRHIYGDWNVHGMELMTHVLWEIRMKRLNEHDLEIHIINGRAIIDLDGELDGEVNGRRHHRRIIIHVFALKIDGRWHLESMEVKTK” was 1.35; that for “DEEKKEVNRIFELWARLFETGDEDSIHRLLDPNARLEVNGQEIHGRHNISRTFLEFKERFKGIKIELILREVRVIGDKVHIHSELRVNINGREESFETDIDLVVIDGKLHSFRFHVH” was 2.48. The value for “DEEEEVLKTYLKLLIDALRTGDEHTMTRLIDPHARTHQGDKEIHGRKSMEELNKRYPNVRVDIRHISEVGDKITIDAVLHVGDKRYEIVIIAWKVNGRWEHTEFEFR” was 0.808. Next, “DEEEELLRRMLHLLYHFLKTGDEDTLSRLMDPNYLLIIGDKEHHGREEYRKVMKRADVLEIMHIHDVHFQGDKIHIDGHSRWRVGDKMHETRIEIIAVKFNGRWHFHSIIVR”: 0.804; “TEEEKDSDDAFRHWVHSMRTGDEDRLRELIDPNARLLVNGRELHGMEWIITILSKEIKELRFKDVRLRDRDIVGNYAEVDVEIDMTIGEKEDSRDVVIFVLKVNGRWVIKEMHIR”: 1.46. “DDEEDHVREMFKLHWDNLRTGDFDKWMNLADPNVRFRYIFNGVDFEYHGRDFVSQILLEIRIDRISIHHVNIFEGHSEIDAHEETTYNGKKTERKVHIELIVFNGRIHELHVEIR”: the protease stability score turned out to be 0.682. “HEEEKLNHLWYEIVVHLLLTGNWKEIKKNADPHARSDINGVEYHGREEVSEVLHHVMKKMGAKVFREKEHDHQGEYMHIHFEIRVGDKLVESTLISLKVDGRWIHHEYREK” yielded a protease stability score of 1.37. Next, “TELEKDAKEFFRIVIEAWLTGDEQKIEHLADPHVRLDINGVELHGWEELIRRLHDELHRYDYMQINVRRVEIQGEKIHVDGELELRFDGKIYRHEVEINILVVNGKNKEQKFVKK”: 0.243.
